The values that follow come from US20130243722A1.

What all share (experiment): cell-based or functional assay
For test [1], the target named is murine IL-12 receptor on mouse CD14- PBMC (mouse) (UniProt P97378).
The target in test [2] is rat IL-12 receptor on rat PBMC (rat).
In test [3] the target is rhesus monkey IL-12 receptor on rhesus monkey CD14- PBMC (rhesus monkey) (UniProt F6X0C8).
Chain of rhesus monkey IL-12 receptor on rhesus monkey CD14- PBMC (rhesus monkey) (F6X0C8 entry or part of it): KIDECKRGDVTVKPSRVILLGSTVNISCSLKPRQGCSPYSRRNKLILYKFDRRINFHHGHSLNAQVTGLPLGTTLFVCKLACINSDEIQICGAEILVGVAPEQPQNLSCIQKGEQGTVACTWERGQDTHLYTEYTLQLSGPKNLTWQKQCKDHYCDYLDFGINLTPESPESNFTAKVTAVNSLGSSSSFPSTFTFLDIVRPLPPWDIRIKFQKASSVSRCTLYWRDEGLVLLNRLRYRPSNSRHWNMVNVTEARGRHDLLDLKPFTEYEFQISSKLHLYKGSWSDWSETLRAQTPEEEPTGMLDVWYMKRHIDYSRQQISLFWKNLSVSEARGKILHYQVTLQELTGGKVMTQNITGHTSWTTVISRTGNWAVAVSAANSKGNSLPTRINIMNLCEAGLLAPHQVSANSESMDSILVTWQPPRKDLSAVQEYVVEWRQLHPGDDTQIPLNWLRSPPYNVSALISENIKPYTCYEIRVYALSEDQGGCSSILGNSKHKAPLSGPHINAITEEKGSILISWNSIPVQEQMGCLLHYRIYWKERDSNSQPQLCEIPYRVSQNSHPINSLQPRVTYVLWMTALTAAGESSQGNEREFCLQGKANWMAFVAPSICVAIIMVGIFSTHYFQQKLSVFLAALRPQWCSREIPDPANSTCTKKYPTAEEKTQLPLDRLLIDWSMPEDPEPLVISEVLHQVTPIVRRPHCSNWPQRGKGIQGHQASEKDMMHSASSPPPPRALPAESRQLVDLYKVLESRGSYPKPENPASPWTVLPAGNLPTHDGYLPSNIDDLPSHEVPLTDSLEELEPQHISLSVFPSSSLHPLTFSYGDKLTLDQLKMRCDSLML

Chain of murine IL-12 receptor on mouse CD14- PBMC (mouse) (P97378 24-874): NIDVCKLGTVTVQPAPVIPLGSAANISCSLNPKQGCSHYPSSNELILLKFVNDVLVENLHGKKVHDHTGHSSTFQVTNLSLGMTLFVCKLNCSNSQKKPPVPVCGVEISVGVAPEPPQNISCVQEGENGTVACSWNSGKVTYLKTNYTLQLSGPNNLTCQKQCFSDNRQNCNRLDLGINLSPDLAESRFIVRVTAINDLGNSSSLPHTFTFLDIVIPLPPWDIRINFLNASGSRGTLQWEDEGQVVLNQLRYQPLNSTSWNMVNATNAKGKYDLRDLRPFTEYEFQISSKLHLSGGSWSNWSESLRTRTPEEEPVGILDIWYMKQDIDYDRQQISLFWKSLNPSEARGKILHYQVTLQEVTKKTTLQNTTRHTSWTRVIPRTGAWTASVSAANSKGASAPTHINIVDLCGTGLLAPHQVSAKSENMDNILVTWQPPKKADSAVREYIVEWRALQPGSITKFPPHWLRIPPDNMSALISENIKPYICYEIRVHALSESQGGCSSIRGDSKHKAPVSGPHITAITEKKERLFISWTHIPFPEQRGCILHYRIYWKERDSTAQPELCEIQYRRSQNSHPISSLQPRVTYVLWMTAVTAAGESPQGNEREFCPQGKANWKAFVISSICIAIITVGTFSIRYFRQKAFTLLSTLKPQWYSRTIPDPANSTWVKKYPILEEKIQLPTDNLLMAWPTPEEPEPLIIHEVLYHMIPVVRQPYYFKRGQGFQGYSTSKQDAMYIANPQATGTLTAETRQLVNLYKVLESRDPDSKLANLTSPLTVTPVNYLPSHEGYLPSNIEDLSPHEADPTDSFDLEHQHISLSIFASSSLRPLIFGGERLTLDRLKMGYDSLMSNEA

In the case of “recombinant human IL-12 (from UniProt P29459 23-219; P29460 23-328) (ligand)”, the EC50 for stimulating IFN-γ secretion from PBMC in test [1] and in test [2] was > 1000 pM throughout. This substance yielded an EC50 for stimulating IFN-γ secretion from CD14- PBMC (ELISA, 16 hours) in test [3] of 1.05 pM.
On to “recombinant murine IL-12 (from UniProt P43431 23-215; P43432 24-335) (ligand)”, for which, in test [1], the EC50 for stimulating IFN-γ secretion from CD14- PBMC (ELISA, 16 hours) is 0.35 pM.
